For assay [1], the target named is eukaryotic elongation factor 2 kinase (UniProt O00418).
Assay [2] has the same target. This is another data set of the same source.

For two substances, KCaM (concentration of CaM, KCaM^app of eEF-2K (0.5 nM) activity toward 5 μM yeast eEF-2, 50 μM free Ca2+ and KCaM (concentration of CaMC results are on record in article PMC12509998.

Sequence of eukaryotic elongation factor 2 kinase (O00418 whole entry): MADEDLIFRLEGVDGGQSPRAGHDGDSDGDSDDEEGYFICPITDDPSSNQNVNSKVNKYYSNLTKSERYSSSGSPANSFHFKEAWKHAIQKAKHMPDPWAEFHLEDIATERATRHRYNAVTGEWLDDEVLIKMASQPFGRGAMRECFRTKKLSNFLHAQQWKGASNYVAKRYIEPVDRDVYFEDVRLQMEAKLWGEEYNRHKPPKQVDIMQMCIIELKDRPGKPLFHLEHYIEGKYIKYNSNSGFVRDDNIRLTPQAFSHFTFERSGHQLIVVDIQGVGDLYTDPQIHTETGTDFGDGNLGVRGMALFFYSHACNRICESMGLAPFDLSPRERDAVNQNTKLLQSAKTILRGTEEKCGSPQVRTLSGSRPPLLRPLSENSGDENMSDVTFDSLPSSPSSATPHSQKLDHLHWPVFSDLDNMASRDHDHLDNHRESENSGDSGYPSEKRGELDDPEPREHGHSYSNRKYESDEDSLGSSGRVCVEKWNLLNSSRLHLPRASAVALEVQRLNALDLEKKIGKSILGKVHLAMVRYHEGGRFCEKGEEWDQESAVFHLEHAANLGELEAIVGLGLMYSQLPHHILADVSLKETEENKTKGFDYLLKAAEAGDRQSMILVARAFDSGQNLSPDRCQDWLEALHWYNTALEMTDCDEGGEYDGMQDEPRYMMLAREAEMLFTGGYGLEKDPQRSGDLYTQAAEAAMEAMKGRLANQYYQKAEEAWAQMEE

As to “calmodulin, full-length (from UniProt P0DP23 1-149) (natural protein)”, the KCaM (concentration of CaM at half-maximal activity) of T348-phosphorylated eEF-2K toward 150 μM peptide substrate, 50 μM free Ca2+ in assay [1] worked out at 67 nM. This substance also came in with a KCaM^app of eEF-2K (0.5 nM) activity toward 5 μM yeast eEF-2, 50 μM free Ca2+ in assay [2] of 121 nM.

Consider “isolated C-terminal lobe of calmodulin (residues 76-148) (from UniProt P0DP23 77-149) (domain or fragment)”, for which the KCaM (concentration of CaMC at half-maximal activity) of T348-phosphorylated eEF-2K toward 150 μM peptide substrate, 50 μM free Ca2+ in assay [1] amounted to 85 nM. In assay [2], this substance showed a KCaM^app of eEF-2K (0.5 nM) activity toward 5 μM yeast eEF-2, 50 μM free Ca2+ of 156 nM.
